One molecule from patent US10801046B2, “Methods and materials for biosynthesizing multifunctional, multivariate molecules via carbon chain modification” (INVISTA NORTH AMERICA S.A.R.L., priority 2016, dated 2020) can be followed below.

Assay [1] is described as follows: Carboxylate reductase activity, 7-hydroxyheptanoate to 7-hydroxyheptanal, NADPH consumption at 340 nm. Format: biochemical. To be noted: enhanced by gene product of sfp, 20 min, against empty vector control, FIG. 44. How it is done:
A sequence encoding a His-tag was added to the genes from Mycobacterium marinum, Mycobacterium smegmatis, Segniliparus rugosus, Mycobacterium smegmatis, Mycobacterium massiliense, and Segniliparus rotundus that encode the carboxylate reductases of SEQ ID NOs: 25 (GenBank Accession No. ACC40567.1), 27 (GenBank Accession No. ABK75684.1), 29 (GenBank Accession No. ABK71854.1), 31 (GenBank Accession No. EFV11917.1), 37 (GenBank Accession No. EIV11143.1), and 38 (GenBank Accession No. ADG98140.1) such that N-terminal HIS tagged carboxylate reductases could be produced. Each of the modified genes was cloned into a pET Duet expression vector alongside a sfp gene encoding a His-tagged phosphopantetheine transferase from Bacillus subtilis, both under control of the T7 promoter.
Each expression vector was transformed into a BL21[DE3] E. coli host and the resulting recombinant E. coli strains were cultivated at 37° C. in a 250 mL shake flask culture containing 50 mL LB media and antibiotic selection pressure, with shaking at 230 rpm. Each culture was induced overnight at 37° C. using an auto-induction media.
The pellet from each induced shake flask culture was harvested via centrifugation. Each pellet was resuspended and lysed via sonication. The cell debris was separated from the supernatant via centrifugation. The carboxylate reductases and phosphopantetheine transferase were purified from the supernatant using Ni-affinity chromatography, diluted 10-fold into 50 mM HEPES buffer (pH=7.5) and concentrated via ultrafiltration.
Enzyme activity (i.e., 7-hydroxyheptanoate to 7-hydroxyheptanal) assays were performed in triplicate in a buffer composed of a final concentration of 50 mM HEPES buffer (pH=7.5), 2 mM […], 10 mM MgCl2, 1 mM ATP, and 1 mM NADPH. Each enzyme activity assay reaction was initiated by adding purified carboxylate reductase and phosphopantetheine transferase or the empty vector control to the assay buffer containing the 7-hydroxyheptanoate and then incubated at room temperature for 20 min. The consumption of NADPH was monitored by absorbance at 340 nm.

Assay [2] can be described thus: Carboxylate reductase activity, heptanedioate to 7-oxoheptanoate, NADPH consumption at 340 nm. It counts as biochemical. To be noted: enhanced by gene product of sfp, 2 mM substrate, 20 min, against empty vector control, FIG. 43. As to the method: A sequence encoding a HIS-tag was added to the genes from Segniliparus rugosus and Segniliparus rotundus that encode the carboxylate reductases of SEQ ID NOs: 31 (GenBank Accession No. EFV11917.1) and 38 (GenBank Accession No. ADG98140.1), respectively, such that N-terminal HIS tagged carboxylate reductases could be produced. Each of the modified genes was cloned into a pET Duet expression vector along with a sfp gene encoding a HIS-tagged phosphopantetheine transferase from Bacillus subtilis, both under the T7 promoter. Each expression vector was transformed into a BL21[DE3] E. coli host and the resulting recombinant E. coli strains were cultivated at 37° C. in a 250 mL shake flask culture containing 50 mL LB media and antibiotic selection pressure, with shaking at 230 rpm. Each culture was induced overnight at 37° C. using an auto-induction media.
The pellet from each induced shake flask culture was harvested via centrifugation. Each pellet was resuspended and lysed via sonication, and the cell debris was separated from the supernatant via centrifugation. […]
Enzyme activity assays (i.e., from heptanedioate to 7-oxoheptanoate) were performed in triplicate in a buffer composed of a final concentration of 50 mM HEPES buffer (pH=7.5), 2 mM heptanedioate, 10 mM MgCl2, 1 mM ATP, and 1 mM NADPH. […] The consumption of NADPH was monitored by absorbance at 340 nm.

B1: SEQ ID NO: 31: Segniliparus rugosus carboxylate reductase (protein)
chain: MGDGEERAKRFFQRIGELSATDPQFAAAAPDPAVVEAVSDPSLSFTRYLDTLMRGYAERPALAHRVGAGYETISYGELWARVGAIAAAWQADGLAPGDFVATVGFTSPDYVAVDLAAARSGLVSVPLQAGASLAQLVGILEETEPKVLAASASSLEGAVACALAAPSVQRLVVFDLRGPDASESAADERRGALADAEEQLARAGRAVVVETLADLAARGEALPEAPLFEPAEGEDPLALLIYTSGSTGAPKGAMYSQRLVSQLWGRTPVVPGMPNISLHYMPLSHSYGRAVLAGALSAGGTAHFTANSDLSTLFEDIALARPTFLALVPRVCEMLFQESQRGQDVAELRERVLGGRLLVAVCGSAPLSPEMRAFMEEVLGFPLLDGYGSTEALGVMRNGIIQRPPVIDYKLVDVPELGYRTTDKPYPRGELCIRSTSLISGYYKRPEITAEVFDAQGYYKTGDVMAEIAPDHLVYVDRSKNVLKLSQGEFVAVAKLEAAYGTSPYVKQIFVYGNSERSFLLAVVVPNAEVLGARDQEEAKPLIAASLQKIAKEAGLQSYEVPRDFLIETEPFTTQNGLLSEVGKLLRPKLKARYGEALEARYDEIAHGQADELRALRDGAGQRPVVETVVRAAVAISGSEGAEVGPEANFADLGGDSLSALSLANLLHDVFEVEVPVRIIIGPTASLAGIAKHIEAERAGASAPTAASVHGAGATRIRASELTLEKFLPEDLLAAAKGLPAADQVRTVLLTGANGWLGRFLALEQLERLARSGQDGGKLICLVRGKDAAAARRRIEETLGTDPALAARFAELAEGRLEVVPGDVGEPKFGLDDAAWDRLAEEVDVIVHPAALVNHVLPYHQLFGPNVVGTAEIIRLAITAKRKPVTYLSTVAVAAGVEPSSFEEDGDIRAVVPERPLGDGYANGYGNSKWAGEVLLREAHELVGLPVAVFRSDMILAHTRYTGQLNVPDQFTRLVLSLLATGIAPKSFYQQGAAGERQRAHYDGIPVDFTAEAITTLGAEPSWFDGGAGFRSFDVFNPHHDGVGLDEFVDWLIEAGHPISRIDDHKEWFARFETAVRGLPEAQRQHSLLPLLRAYSFPHPPVDGSVYPTGKFQGAVKAAQVGSDHDVPHLGKALIVKYADDLKALGLL
modifications: Segniliparus rugosus ATCC BAA-974
notes: Segniliparus rugosus carboxylate reductase
Consider B1, for which the “acceptance of 7-hydroxyheptanoate as substrate, forming 7-hydroxyheptanal” value in assay [1] was “accepted 7-hydroxyheptanoate as substrate”. Further, the “acceptance of heptanedioate as substrate, forming 7-oxoheptanoate” value in assay [2] is listed as “accepted heptanedioate as substrate”.
